Measurements: paper PMC12416549 (2024)
Substitutions are numbered along the chain they refer to. Numbers in names are those of the source.

T1: TNFR1 (Homo sapiens, UniProt P19438)
T1 chain: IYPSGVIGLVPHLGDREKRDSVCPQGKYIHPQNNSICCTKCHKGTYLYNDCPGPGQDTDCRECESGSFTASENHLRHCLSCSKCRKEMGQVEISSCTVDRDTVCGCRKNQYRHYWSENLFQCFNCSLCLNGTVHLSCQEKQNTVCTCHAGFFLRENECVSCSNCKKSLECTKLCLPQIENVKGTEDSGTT

B1: K66I (designed binder)
chain: MTLQELLREEALRRAEAEAFRYALELLAEKFPEQKEYLLDLAEEIESQIRSLSGVDVEDVRKFLDIEWAWVKELLAEHPAELAEVEAARAARLAELRAEVEAKVAA
B2: R13Y (designed binder)
chain: B1 chain with R13Y, I66K
B3: L74T (designed binder)
chain: B1 chain with I66K, L74T
B4: L41V (designed binder)
chain: B1 chain with L41V, I66K
B5: M1F (designed binder)
chain: B1 chain with M1F, I66K
B6: K62S (designed binder)
chain: B1 chain with K62S, I66K
B7: R92Q (designed binder)
chain: B1 chain with I66K, R92Q
B8: Q34P (designed binder)
chain: B1 chain with Q34P, I66K
B9: V85M (designed binder)
chain: B1 chain with I66K, V85M
B10: E33W (designed binder)
chain: B1 chain with E33W, I66K
B11: E73I (designed binder)
chain: B1 chain with I66K, E73I
B12: P79C (designed binder)
chain: B1 chain with I66K, P79C
B13: P32M (designed binder)
chain: B1 chain with P32M, I66K
B14: L52D (designed binder)
chain: B1 chain with L52D, I66K
B15: M1E (designed binder)
chain: B1 chain with M1E, I66K
B16: E10A (designed binder)
chain: B1 chain with E10A, I66K
B17: A17W (designed binder)
chain: B1 chain with A17W, I66K
B18: E44S (designed binder)
chain: B1 chain with E44S, I66K
B19: A76F (designed binder)
chain: B1 chain with I66K, A76F
B20: R97M (designed binder)
chain: B1 chain with I66K, R97M
B21: R21S (designed binder)
chain: B1 chain with R21S, I66K
B22: H78A (designed binder)
chain: B1 chain with I66K, H78A
B23: A90V (designed binder)
chain: B1 chain with I66K, A90V
B24: E16G (designed binder)
chain: B1 chain with E16G, I66K

Biological target: T1, TNFR1
Experiment: yeast display SC50

Binder | apparent Kd (screen)
B1 | 869 pM
B2 | 335 pM
B3 | 2480 pM
B4 | 869 pM
B5 | 593 pM
B6 | 539 pM
B7 | 304 pM
B8 | 490 pM
B9 | 490 pM
B10 | 593 pM
B11 | 718 pM
B12 | 718 pM
B13 | 1400 pM
B14 | 24400 pM
B15 | 593 pM
B16 | 5310 pM
B17 | 539 pM
B18 | 13800 pM
B19 | 446 pM
B20 | 539 pM
B21 | 539 pM
B22 | 539 pM
B23 | 593 pM
B24 | 593 pM
